# Results published in the DeepSol protein solubility set.
# Assay: soluble on expression in E. coli; label from the status in PepcDB or PDB records
row,Sequence,soluble on expression in E. coli
1,MGSDKIHHHHHHMKIAQIAPLAERVPPKLYGGTERIVHCLTEELVRLGHDVTLFASGDSLTSAELVPCCDVALRLNPRVQDFLPHHIAMLEEVRRRAPQFDVLHFHIEFLHFPLIRDFADRTVTTLHTRLDLPDLQPFYLAFPDIPLVSISQHQRVPMPPVNWRGTVLHGLDPTVLPLREGRSDEYLAFLGRIAPEKGPDRAIEIAARSGMPLKIAAKIDAQDRAYWEAVVEPLIASHSNVEYIGEIDEGQKADFLGNAAALLFPINWPEPFGLVMIEAMACGTPVLAFRYGSAPEVIDDGVSGILVDTVEQAVESLGRVLELDRRKVRESFETRFTTERMTRDYLDIYQNLPGVLRQTASTPQGEAKKVGLEAA,not soluble
2,AIASERLYYFVIVGRDDRVLYDLLYPASLSELDWRTSSELSSPAERGDFEPHHFIPSIQVLLQFVAYSALDHIEEKYWLTSARSLKHIFRFRDWSASVQLTPNAATRFVLVHGASDDASRNVRAFLHAVYEAYVPHVVCNPFQEEDAPITSKRFHEVAKNLAKRYFSG,soluble
3,SMGAEPGRPARLDQLLDMPAAGLAVQLRHAWNPEDRSLNVFVKDDDRLTFHRHPVAQSTDGIRGKVGHARGLHAWQINWPARQRGTHAVVGVATARAPLHSVGYTALVGSDAESWGWDLGRSRLYHDGKNQPGVAYPAFLGPDEAFALPDSLLVVLDMDEGTLSFIVDGQYLGVAFRGLKGKKLYPVVSAVWGHCEVTMRYINGLDPE,soluble
4,RSAEALFEKAVTPSDVGKLNRLVIPKHHAEKHFPLPSSNVSVKGVLLNFEDVNGKVWRFRYSYWNSSQSYVLTKGWSRFVKEKNLRAGDVVSFSRSNGQDQQLYIGWKSRSGSDLDA,soluble
5,SNAMSLEMFDKEIFDLTNKELERQCEGLEMIASENFTLPEVMEVMGSILTNKYAEGYPGKRYYGGCEFVDEIETLAIERCKKLFNCKFANVQPNSGSQANQGVYAALINPGDKILGMDLSHGGHLTHGAKVSSSGKMYESCFYGVELDGRIDYEKVREIAKKEKPKLIVCGASAYARVIDFAKFREIADEIGAYLFADIAHIAGLVVAGEHPSPFPYAHVVSSTTHKTLRGPRGGIIMTNDEELAKKINSAIFPGIQGGPLMHVIAAKAVGFKFNLSDEWKVYAKQVRTNAQVLANVLMDRKFKLVSDGTDNHLVLMSFLDREFSGKDADLALGNAGITANKNTVPGEIRSPFITSGLRLGTPALTARGFKEKEMEIVSNYIADILDDVNNEKLQENIKQELKKLASNFIIYERAMF,soluble
6,MSLTDNQDPLQLVQEFRSIAGEAALVCAEETEDQRDRTQFVNFELEAKLWYLVELLVSFRTSDAPMDDIELHDYNSNAVFKKAQLQEDPELYVVWLIIAWIQENLTVSPRPAELPTTKWSNTLLAGGLKSSDLDCPLREEGVQIHPKDNQDDHCFYKYMYELILAGKYEEVRRECEYSDNLTLGMIMCGLEDYVDPRIDLELAGDYEGHQGIKKRALWRRAVYALSRNPNLDKYEAAIYAFLSGTIPQDIDEQQLDWERMLLVYLNQIWNIKIENYLLEKERINKEELIEQMPSQPLSLSAVLNIVASKHVEESEHPIRVLMGAVILNTISPAVKSFIDMLLDAVKGVDQENDLLSEPYILRILTHLVIFLDKACPGVIEEGDKSKLVTTYVSLLNLYEQYDLVPVYISCLDEQDIMEAYSFFLSNLVGDSSRERQLELCYFFQLPTANILKRTAQRIFNDTEPHYNLADTVTMNSEVTDIDLHLISAVDWLMKGRLHVDAVESIIALCRRFLANGKVNSLSTFFEQHNMDDLIKNYELDQLSAKEEYPEDRFVQEIGQYTKLITGFRQYKNWENSSHTVSSSKNTSALLQQFQAFASTLRGLVTEFLVELTEHTDMPSEDRDMLYNIRSLYTPYLLIELHNSYTSTAEKLGVPSFLQEAVNLSTMVANETDKIYLLFQNSGKLKEYLHLVAKAVALIGHEGHHHHHH,not soluble
7,MGSDKIHHHHHHMVVLAPHIEWLMETVHIISGLNDGGAEAVLYRLCSSDKAAEHYVISLMDEGKYGALLREAGVQVSCLSMPRGRVTLGGLWRLWRLLRQIRPQAVQTWMYHADLVGGLIARLAGVKQVFWGIHHTTLHAGQSRRSTIWVARLCARISSCLPSAIICCAQKALEAHRELGYAAEKLRVIPNGYDLVRFRVDEDARVRLRTEWNTGSRWLIGMVGRFDPLKDHKNLLDALAIVKYRGVDFCCVLAGRGLDQNNAQLMAWLTELDLAGEVKLLGQRMDIPDVMNALDVHVLSSSSEAFPNVVAEAMACGTSVVTTNVGDAALIVGETGWVVPARNPGMLADALLQAYVAMHDEAAWQVRCTAVRQRVEDHFSLERMVENYHLVWQNKL,not soluble
8,MATITQRNGKWRVQIRMKGVSRSATFERASDAKAWAARIESQIMDGIQGNAPRNTIFADLIRRYLSEVTPSKRGAREESYRIGRALKTPLAKVRLADLRPQDFADWRDQRLQEVSPTSVGRELTTLSAVCEHAMKEWGLLRENPVRKISKPKKSRARTRRPTEQEIADICAALLYRPNEKPKMAVQRVAVAVLFAIETAMRAGEICGLKWADVNMRRRIAHLPITKNGDSRDVPLSLRAAELIEQLRGIDDTWVFSLDAKSLDVLFRRARDNCGIQGLHFHDTRREALTRLSKKVPVEVLAKISGHRDLRILLNVYYRPDMADIAKMLD,not soluble
9,MEELFCIGCGIQIQTEDKEKAGFTPAAALKKGMETGELYCQRCFRLRHYNEITDVHITDDEFLRLLHEVGDSDALVVNVIDIFDFNGSIIPGLSRFISGNDVLLVGNKKDILPKSVKDGKVTQWLTERAHEEGLRPLDVMLTSAQNKYAIKDLIGRINELRNGRDVYVVGVTNVGKSTLINAIIQEITGNKDVITTSRFPGTTLDKIEIPLDDGTFIFDTPGIIHRHQMAHYLSPKELKIVSPKKEIKPKTYQLNPEQTLFLGGLARFDFINGERQGFTAFFDNQLELHRTKLAGADAFYDKHVGTLLTPPDKKELTAFPKLVRHEFTIDQKMDIVFSGLGWIRVNGQKDSKAIVAAWAPEGVAVIVRKAII,soluble
10,ANCSIMIDEIIHHLKRPPNPLLDPNNLNSEDMDILMERNLRTPNLLAFVRAVKHLENASAIESILKNLLPCLPLATAAPTRHPIHIKDGDWNEFRRKLTFYLKTLENAQAQQ,soluble
11,MSYKSSKYNLFIERKREVISFNTLRNIIAKCDIETKEILENETFNKLPPDLLNKMISEGIIVNKELNELNIIKLTRMMYYGQLLHYLSIGLTLVMTYSCNLRCPYCYEGDIKSKGGLLTREKIETILTFASAHAQGDKKPTISVSFYGGEPLLNWKGCEYTLQRLEEMKENKEIRDYSAGFVTNGTLINEDIVDAINNYNVYSMQITLDGPKEIHDKRRIKSNGEGTFDQIIENIKLLNRRIANKNFHLALRINVDKTNYKKIPELLDFLKDEGLGGIPISYGIVRGNLPYCSSNCGVYFSGSDLQKYLPYLWKEAYRRGFEVWTRPNLRFIYCGYDNPFGYVIDPELKVYPCWEMVGIEDYQIGEIQKDGTMKITPFYYDAKSRDPTEYDECKNCKLLPVCMGGCAMESIRKNGHPNGPGCDINKYIWKEGLKFYLMKKYPNLFSKETLIENLGRVPNRDEQTKNRIMFNT,not soluble
12,MSGGGIIPRGGGYSKRRGRGRRGGGNGGFRDDIRDNQSDRHLSPDRRSNHSEDRHEHRFNNYRQQNRPNSRTPSPSNHNQVQTYRNNPFDARPALSSNDRDQGRNRFSPPSFRRDGRDSDRNGYHEKEEEPTRGSRNDLRTILKPTDKEAARTWKLRIADAEEAIRRAEFQLRRAKMDHEALLEAYKEYTETTCPQELLKPNW,not soluble
13,MTERKIFNRLKSVLAEKGKTNLWLTETLDKNKTTVSKWCTNDVQPSLETLFDIAEALNVDVRELIVSTKR,soluble
14,MDPELQCIRECRLAQLKNNSGGTNGDRNSGANNGGGENSAPVGAAIANFLEPQALERLSRVALVRRDRAQAVETYLKKLIATNNVTHKITEAEIVSILNGIAKQQNSQNNSKIIFEAAALEHHHHHH,soluble
15,MTENNVDPYEVVKKRYESTVDSFVLSDLFQPTLESNQELIDDVKDNRLVIYTAFTGNYDELKEPEFIDENCDYVCFTENPDLESDTWEIVQMEKSTLDDNRKAKQYRLFTDKYFPEYKYSFWLDGTFKIVGSIREYIYKYAKSKMLVVVHPERDCIYDEAVMSMPFPRYSNYTMTKQVEKYRSEGMPEHYGLPATGALFRAHNDPEIISIMRQWWREVVNYTNQDQLSLPYVMWKNNFHPSVSDVYYWVNEYWSKEGSYQHNFEIEDYITSRNLIESLEGNIKDKNTLTKEEINLLFNDIDALRDEANALNIARDHWDRQIRGVRNSTSWLEHHHHHH,soluble
16,MGSDKIHHHHHHMKNSPLNGLNGLKAFLETKPKEYHKFDPSRFIQIYKDFKNAFFEIQAKVIHVVGTNGKGSTGRFLTLLLADQNFKVLHFTSPHVFEFRERFFLNGSVVGESVLENAHQQLQSHAFSSACSYFEYATLLAVMLAKDCDYLVLEAGLGGEFDSTNALKKTLSVFTPIDYDHKEFLGDSLESIAQTKLKAMGSLSIIAPQQELVLNAAQKIAKEKHAKLIVVQNEISKGVRDYIERYHLARFLAMNLEVALKAFETLLPCNKQEVLKNLKPLNLIGRCELLSPNILIDVGHNPHSAKALKEEIKRIFNAKIILIYNCYQDKDAFLVLEILKPVIKKVLILELHEERVIKLEKLKGILETLGLEYALFEDVEENENYLVYGSFLVANAFYKRYQEKRD,not soluble
17,GMETTHYSIAQHFSSGDFPAVYACFNDIIEWNIIGNQVVKGKADVIDFCNKMLPEMKGAVLTNDNVIQNENQIVIEGKCRYFDAEGKEAFVSYCDIYRFENDTIKTITSYCI,soluble
18,MKDIEKARRYLRNAGEMLRKNEVDEDGIYNNRKHVKIAGNRAYSGVLTALDAVLGNKTSDRKTLDWYEEELTNIDPKILPYFLTAYDVLYLAMGYDGNLIAAISKEGLDIAEKIINWAEQRTAA,not soluble
19,MGSDKIHHHHHHMHLPNSQIYKNFGESMNPFDIMKASQIACCLEVSSFKPGNVHRNRDYRDIKYHHFINAGIAFGNVVYEAAQKDRDVGLYIKKAVIESKKWSPTNANLGIIMLHIPIAMAAGKLENFDENKLKENLKKIAENTTVEDALNVYDAINIAMAYVNKPKKGPDVTSEDAKKELIEKGLTLLDVYKISAEWDNISKEWVDNFKISFEGYNLLKKYYDELNNINLAVTKTFLNLLAKYPDTLIARKRGFETALKVSKMAEDVLNNFKEEKVKEFDKYLSKEGNKLNPGTTADLIASSLMIFILDRIDKRETILW,not soluble
20,GGGSGGSKKDEHKQQGELYMWDSIDQKWTRHYCAIADAKLSFSDDIEQTMEEDNPLGSLCRGILDLNTYNVVKAPQGKNQKSFVFILEPKQQGDPPVEFATDRVEELFEWFQSIREITWKIDTK,soluble
21,KVTKLINDDPTLTHDQKVDQINKVEQAKLDAIKSVDDAQTADAINDALGKGIENINNQYQHGDGVDVRKATAKGDL,not soluble
22,SDNDLKLLALESETIRSVADLHNKRVGMIRASASEFYFDSLLLANNLKGIPIDKVYGTADQLYQQLFDKQLDAISIWEPWGYKIGVAAESKVTNLSLPGIYTLSFNLLTMKPTTEEEKQRSLAILKA,not soluble
23,MEKETLFIAFSTQKGGAGKTTLTVLVASYLHYVKGMNVAVVDCDYPQHSIAEMRKRDLKTVMEDEHYKLMAYRQLQRIRKKAYPVAESTAEDAVTKADELLEKMPETDIVFFDLPGTVNSTGVLNTLVNMDYVFSPIAADRVVMESTLRFASRLNDTLIATGKTNIKGLYLLWNMVDGREKSELYKVYEQVIGELGLKVLKTFLPDSKRFRRELTGGHRALFRSTLFPADGTLVKGSNLKEITEELLSIIRK,not soluble
